Measurements reported in patent US20240083945A1 (Bicycle, published 2024).

Biological target: T1, COVID-19 nucleocapsid protein (N-protein) (severe acute respiratory syndrome …, UniProt P0DTC9 1-419)
T1 construct: also called nucleocapsid protein (N-protein) of severe acute respiratory syndrome coronavirus 2 (SARS-CoV-2)
Experiment: bio-layer interferometry (BLI)

How did the Kd turn out when ACLPLGARCNWTRVCA (Ci, Cii and Ciii cysteines covalently bound to TATA scaffold) [BCY17646] was run?
The Kd was 198 nM.

ACTNLQWAMCYITGNCA (Ci, Cii and Ciii cysteines covalently bound to TATA scaffold) [BCY18172] was tested. Which Kd did it give?
Its Kd is 2740 nM.

For ACTNLEWADCYINHNCA (Ci, Cii and Ciii cysteines covalently bound to TATA scaffold) [BCY19572], which Kd is on record?
The Kd was 1000 nM.

With ACTNLEWANCYINHNCA (Ci, Cii and Ciii cysteines covalently bound to TATA scaffold) [BCY19573] as the binder, how does the Kd read?
Its Kd is 1190 nM.

ACTNLQWADCYINHVCA (Ci, Cii and Ciii cysteines covalently bound to TATA scaffold) [BCY19458] was tested. Which Kd did it give?
The Kd was 2290 nM.

ACTNLDWAYCYIHNQCA (Ci, Cii and Ciii cysteines covalently bound to TATA scaffold) [BCY19570] was tested. Which Kd did it give?
Its Kd is 978 nM.

With ACRVTLDACWDTPCA (Ci, Cii and Ciii cysteines covalently bound to TATA scaffold) [BCY16579] as the binder, how does the Kd read?
Its Kd is 759 nM.

With ACLPLGARCQWQRECA (Ci, Cii and Ciii cysteines covalently bound to TATA scaffold) [BCY17648] as the binder, how does the Kd read?
The Kd was 1860 nM.

ACLEAGQRCNWTRVCA (Ci, Cii and Ciii cysteines covalently bound to TATA scaffold) [BCY17649] was tested. Which Kd did it give?
The Kd was 596 nM.

ACAWDEYYQVCLPCA (Ci, Cii and Ciii cysteines covalently bound to TATA scaffold) [BCY16580] was tested. Which Kd did it give?
The Kd was 6680 nM.

Which Kd does the source give for ACENFQLGCRITYKCA (Ci, Cii and Ciii cysteines covalently bound to TATA scaffold) [BCY17643] here?
Its Kd is 4230 nM.

Which Kd does the source give for ACTNLEWAYCYIHNECA (Ci, Cii and Ciii cysteines covalently bound to TATA scaffold) [BCY19571] here?
The Kd was 958 nM.

With ACLEAGQRCQWQRECA (Ci, Cii and Ciii cysteines covalently bound to TATA scaffold) [BCY17650] as the binder, how does the Kd read?
The Kd was 1990 nM.

Which Kd does the source give for ACLAPGQRCQWGRTCA (Ci, Cii and Ciii cysteines covalently bound to TATA scaffold) [BCY17645] here?
The Kd was 227 nM.

With ACLEAGQRCQWGRTCA (Ci, Cii and Ciii cysteines covalently bound to TATA scaffold) [BCY17644] as the binder, how does the Kd read?
The Kd was 675 nM.

ACLEAGQRCQWSRTCA (Ci, Cii and Ciii cysteines covalently bound to TATA scaffold) [BCY17651] was tested. Which Kd did it give?
The Kd was 686 nM.

With ACSEEYMFCNNRYVVCA (Ci, Cii and Ciii cysteines covalently bound to TATA scaffold) [BCY16577] as the binder, how does the Kd read?
Its Kd is 934 nM.

ACDDWMIGCRITYKCA (Ci, Cii and Ciii cysteines covalently bound to TATA scaffold) [BCY17642] was tested. Which Kd did it give?
The Kd was 3940 nM.

With ACLAPGQRCNWTRVCA (Ci, Cii and Ciii cysteines covalently bound to TATA scaffold) [BCY17652] as the binder, how does the Kd read?
The Kd was 142 nM.

With ACLAPGQRCQWQRECA (Ci, Cii and Ciii cysteines covalently bound to TATA scaffold) [BCY17653] as the binder, how does the Kd read?
Its Kd is 799 nM.
